Data from the DeepSol protein solubility set.

assay: soluble on expression in E. coli; label from the status in PepcDB or PDB records

Row | Sequence | soluble on expression in E. coli
1 | MKQIFIGIIRFYQKFISPMTPPTCRFYPTCSHYGLEAFQKHGALKGFWLTCKRILKCHPFHPGGFDPVPDKKDDKVNSLEHHHHHH | not soluble
2 | MNKYDIAVIGGGMVGAAVAVGFAKQGRSVVVVEGAEPKAFDAAQALDVRVSAISHQSVKLLESLDAWSAIEAMRVCPYRRLETWEHPECRTRFHSDELSLDQLGYIVENRLIQLGLWQAFAQFDNLTVKCPERLKDIDFNDGNRITLESGEQFDANWIIGADGANSKVRQLAGIGVTAWDYRQHCMLINVKTELPQQDITWQQFTPSGPRSFLPLCSLTEDGQEVGQGSLVWYDSPKRIKQLCAMTKPQLREEIVRHFPKELGDIEVLQFGSFPLTRRHAQSYSHRGCVLVGDSAHTINPLAGQGVNLGFKDVDVLLSVTQGQDELTDALLAKYERTRRPDNLLMQTGMDFFYKGFSNDLGPLKFARNAALKLAENSGPIKAQVLKYALGMLEHHHHHH | not soluble
3 | MSLDEILKQEMQKELTTRILPYWMERMVDQENGGFYGRITGQEELMPRADKGAILNARILWTYSAAYRLLGREEYKEMANRAKRYLIDHFYDSEFGGVYWSLNYRGEPLDTKKQIYAIGFAIYGLSEFHRATGDPEALMYAVRLFNDIESHSFDGLKNGYCEALTREWNEIADMRLSEKDANERKTMNTHLHILEPYTNLYRVWKDARLERQLYNLIGLFTEKILDKDTSHLQLFFDNDWQSKYPVVSYGHDIEASWLLHEAARVLGDAGLIAEIEPVVKKIAAAASEGLTSDGGMIYEKNLTTGHIDGDYHWWVQAETVVGYYNLFRYFGDRGALQHSIDCWEFIKRHLTDDVHGEWFWSLRADGSLNRDDDKAGFWKCPYHNGRMCIELLGEGHHHHHH | soluble
4 | MKAIAGLTVNIKQGEFVYVVGPSGAGKSTFIKMMYREEKPSTGSINVNGLVIETLAERDVPYFRRQLGVIFQDFKLLPKLTVYENVAFALEVIEEEPDAIRERVTEVLGLVGLEDRADALPSELSGGEQQRVAIARAIVNKPKVVIADEPTGNLDIETALDIMKIFTRINERGTTIVMATHNADIVNTIRHRVIAIEGGKIVRDEIEGGYGYEG | not soluble
5 | KPGARIGVGMEYQFNDMISLQPSLFFSQKGAKYSSGFDGNIIDADADVKINQLYLELPVNVQFRFNIADNTNLVIATGPYLACGVGGKAKFDGDASVGGIHINGDDKIDTFGDDGLDYNRFDAGWNIGLGVEFGKILVGLDTQLGFCKVMDGDAPHNANIGITLGYKF | not soluble
6 | GASTRDYEIQRERIELGRCIGEGQFGDVHQGIYMSPENPALAVAIKTCKNCTSDSVREKFLQEALTMRQFDHPHIVKLIGVITENPVWIIMELCTLGELRSFLQVRKYSLDLASLILYAYQLSTALAYLESKRFVHRDIAARNVLVSSNDCVKLGDFGLSRYMEDSTYYKASKGKLPIKWMAPESINFRRFTSASDVWMFGVCMWEILMHGVKPFQGVKNNDVIGRIENGERLPMPPNCPPTLYSLMTKCWAYDPSRRPRFTELKAQLSTILEEEKAQQEE | soluble
7 | MNIAAVAGSPTGDMIEIGQHLRVRHFCYQTAKQRGDIGKIIRIAFAEVKFRCDSQIPLQRQTATNVADMFMHAKNFLHYNDHWQWAIALLWSGMVSRHVIPL | not soluble
8 | NLSASNRALPVLTLFTKAPCPLCDEAKEVLQPYKDRFILQEVDITLPENSTWYERYKFDIPVFHLNGQFLMMHRVNTSKLEKQLRKL | soluble
9 | MKLTVKRSVFLQELQTVQRAISSKTTIPILTGVKIVLSEDGLSLTGSNADISIESFLSKDDEKAQMTIERTGSIVLQSRFFGEIIRKLPEDMFTMEVLDNNQVAITSGKADFTVNGLDADNYPHLPVIDTQNQMKLPVHLLTKIISETGFAVSMHESRPILTGVHFILENQKLLAVATDSHRLSQRVIPTEQAVEDFNIVIPGKSLTELSRSLTNEEEMVEISIMENQVLFKTETMYFYSRLLEGNYPDTNRLIPTSHNTQIEFYVPELLSAIERASLLSHEGRNNIVRLSISPDSVVLYGNSPEIGKVEEALNYENVSGEALDISFNPDYMKDALRAFGDMNITVKFLSPIRPFTLEPTETELDFIQLITPVRTN | not soluble
10 | KRAPDGRVLDIAGTEHSLHDLTRGKISLVSFVYLTCGDVNGCPLAMSVFFDVHDASGDLPGLNEDVQLLTISFDPARDTVEAIEAFAYPITSDEQAGDKLNWQVLTTSGPQELRPILDGYGQVVDRSEDQETISHLLRLFLVDRQGDIRNVYGLGFLDPRLLLTDIETLLMEEAGA | soluble
11 | MQYEKVKPPENGEKIRYENGKLIVPDNPIIPYFEGDGIGKDVVPAAIRVLDAAADKIGKEVVWFQVYAGEDAYKLYGNYLPDDTLNAIKEFRVALKGPLTTPVGGGYRSLNVTIRQVLDLYANVRPVYYLKGVPSPIKHPEKVNFVIFRENTEDVYAGIEWPRGSEEALKLIRFLKNEFGVTIREDSGIGIKPISEFATKRLVRMAIRYAIENNRKSVTLVHKGNIMKYTEGAFRDWGYEVAKQEFGEYCITEDELWDKYGGKQPEGKIVVKDRIADNMFQQILTRTDEYDVIALPNLNGDYLSDAAAALIGGLGIAPGSNIGDGIGVFEPVHGSAPKYAGQNKVNPTAEILTGALMFEYIGWKDASEMIKKAVEMTISSGIVTYDIHRHMGGTKVGTREFAEAVVENLQSL | soluble
12 | REIGENTYIVEGSMTLNDFNEHFDTELESDDVDTIAGYYLTGVGAIPTQEVKEHYEVINKDKRLEFINDKVKDGRVTKLKVIITAAPEEAGE | not soluble
13 | MKQTQRHDAIIELVKKQGYVSTEELVEHFSVSPQTIRRDLNDLAEQNMILRHHGGAALPSSSVNTPWHDRKATQTEEKERIARKVAAQIPNGSTLFIDIGTTPEAVAHALLGHSNLRIVTNNLNVANTLMAKEDFRIILAGGELRSRDGGIIGEATQDFIAQFRLDFGILGISGIDSDGSLLEFDYHEVRTKRAIIENSRHVMLVVDHSKFGRNAMVNMGSISMVDAVYTDTLPPPGVMQVLTENHIQLELCLEHHHHHH | soluble
14 | MEIKEFSACNLESLRKLYLDSRRDSFPWLKADSFRIEDFDRDSQGERIWLSEVLGNVVGFISIWEPDNFIHHLYVATEYQGQGVGSMLLNGAKMKYGNLSLKCMVQNQKALNFYSSQGFEIVSQVDDELGGYYYMSFSAQT | not soluble
15 | MGHHHHHHSHQELASKRVDIQNKRFYLDVKQNAKGRFLKIAEVGAGGNKSRLTLSMSVAVEFRDYLGDFIEHYAQLGPSQPPDLAQAQDEPRRALKSEFLVRENRKYYMDLKENQRGRFLRIRQTVNRGPGLGSTQGQTIALPAQGLIEFRDALAKLIDDYGVEEEPAELPEGTSLTVDNKRFFFDVGSNKYGVFMRVSEVKPTYRNSITVPYKVWAKFGHTFCKYSEEMKKIQEK | not soluble
16 | MGSDKIHHHHHHMTTINAANAGTYAFDDQFKVNRMGYGVMQLTGPGTWGPYADPENGVKVVKKALEYGVNFFDTADSYGPWFADRYLAAGLKDAANRDQIFISDKVGQTRQGPNVWTPLGEPRYLRQQVEVSMMTLGIDHEDLVFLHRIDPHYSIADQVGELKKLQDEGKIKHIGLSQVTVDQIKEAQQVAKIDAIENLYNVANHGDDDVVDYAASQKMAFLPWFPLATGELAQAGSVLSTMAQKYQVSPAQIALAWLLKRSDNIIPIPGTSSIEHLRDNVAAANVDLTTADFNGLSQLSVK | not soluble
17 | MQSVNRKSNKGATANIDAQEPFSVLLMGIDTGDLGRTEQGRSDTTMVVTINPKENKSTMISLDRDILTDIVGNDTQDKLNHAYAFGGAEMAINTVQELLDIPIHHYVSINMKGLKDLIDAVGGIEVDNTIGEFTLDGITVPAGKIKLDGTTGLAYARMRHEDPEGDVGRQRRQREVVEKIVRKVMSFDGVSKYRKILDAVEANVKTDLTWDDMMDIQSKYLSAFKTIDSEQLQGYSATIDDIYYQVLDPNSLYKTQTTLRKQLGLKEHASEREKDLAFYNQFSYAVTDTALIGESGDSSANSSTSSSSTADTTAGQTEYNGNTQQAAEGTYDPNTYVDPNAYTDPNAYADPNTYVDPNAPQYLEHHHHHH | soluble
18 | MTAWLLSLALNLPFLGGPQEYQILVALGCSAPRHVQNGYREMLAHEVLPRLAEKVTTTQVRLTLAPITGRSYTAPARVLETPNPLSTPRFQLEEAKKTFQKEALRTFDELRKRAAAECSRGTEIIGALKAAGERARKPGRILVLAHGFEQSELMNLYDYRLKLEKREVRQGLLQRVKARLGLPNLKDQEVCIAGITAGNDNNANARLTTSIKAFWEELIQASGGRLVGYGTTPRVCPFL | soluble
19 | MLFTVTAPKEVYTVDVGSSVSLECDFDRRECTELEGIRASLQKVENDTSLQSERATLLEEQLPLGKALFHIPSVQVRDSGQYRCLVICGAAWDYKYLTVKVKASYMRIDTRILEVPGTGEVQLTCQARGYPLAEVSWQNVSVPANTSHIRTPEGLYQVTSVLRLKPQPSRNFSCMFWNAHMKELTSAIIDPLSRMEPKVPRT | soluble
20 | MGSDKIHHHHHHAVFVAVGIRMITSGDGRTNRYDVEAGNNTYDNAVIENSKISEKNKIQNNQSMLDDIMNSTQYPKQLKDLALKNEEALEFVFDYPAEHVKEHTIDLTEEASMDSVPLFVQWDKRWGYEKYSGNFFAASGCGPTTLSMVVVYLTHNREASPIAVAKYSKEAGYSVDGSGSSWTLISEGCMHYGVKAKAVALDESRMKAELDEGHPIVVNVGPGDFTDTGHFMVITGYDDEGFSINDPNSIEKSGKRWLFKNISSQIRAVWSMYV | not soluble
21 | SQPNSSIIKYPNKVRNLPGIAASLRTVGYSTHHLYGGDADFTNVRSYLYGTGYDEVTDVSSFPFKTRLSKWGTPDHISFPRLLDDCRRLEKEKKPYFYSFLTLSSHEPFDVPSQHHPDPYLNSVFYTDSCFGDYIRGMQQSPQWKNTLIIAVSDHGYPYPADQAMPDQPGRYGIVMLWAGGAILRPIRFEEVVSQSDLPATLLAQLGLTHDEFVFSKDVFRRNSPHFAYFSFPGLVGLATSEGTTIYDFAGDKIVYGHEAPLADQRAIAAKVMLQSVMKDMLSR | not soluble
22 | MGSDKIHHHHHHMQVRDFIKHLKNGERPPLTLILGEESALRQQAQHAIASMIPEDQQAMNFGRYDMQQTPVGAALNDATSMPFFGDYREVVIDDPYFLTGEKNADKIDHDLAGLQAYFENPVPSTMMVIIAPYKKLDERKRLTKALKKAALIVNAAPLDEREARAALAQTFKKHQVTIDAPALDTLVQRTNGQYSIMMGEVRKLLTYASDGSPLTVAAVEALVPKQLNDRVFDLVTDVLRKNAAAALALYRDLLAQREEPIRLNALMLGQFRLLLQVKLLAKKGYSQGDIAGTLKAHPYRVKLAMRQVDRLPYQQLATAYSGLVDTETAMKTGTIDKALAFELFMLKYTGQQSGKHVRG | not soluble
23 | MGSDKIHHHHHHMIKLIVSDIDGTLVDSQGQLLPATITGVQAAVARGAQMVLASARSPKGMFGIAQQLGINSTMIAYNGALTATTDVNDRLTVFEEQAVDPKLAQAVQTVVAHDWPAASISIYSNNNWLVATNGPWEQQEATGIGYAPHVTDLGTWLQRMPTPVHKMMIMADPDIIQAIEQRLSRNEFSGLAVYRSKETYLEIVAAGVTKAAALMKLLQDDQVTPAETLAFGDNFNDVAMLQTAGIGVAMANAPQPVKEAANIVTTDNNHNGIQLTLAQYFADVTR | not soluble
24 | MDVKNAFVETAMGVLSEFGFSSVFAEKNETGGLVEAEYVNVVMGVNGAISGNLIMTAKKESALAIASAMLGGMEFTEVDDMVKSAIGELLNIIAGNAFSKVDVKAAVYISTPTLLIGEGISVLLQSPGTNKLVFDMDGQSMDVFLDIE | not soluble
25 | MNEFEIGLMSYLGREKLEKLGKVKVGIAGAGGLGSNCALHLVRSGFKNLKIVDFDVVEPSNLNRQFFFLDQLGRPKVLALKENLARINPDVMIEAIQQKVDRNNAKQLFDDCDAVVEAFDKVECKTMMAEAFASSGKFFVCASGLAGWGNSDEIRIRKVHDRFYIVGDFVTGVKEGIPPISPRVNIAAAKQADLILSFFLDDADNTVNVNCQEGLEHHHHHH | soluble
